Reference: PMC6420652 (2019)

B1: Clover-AZIN (antizyme inhibitor with an N-terminal Clover tag) [human] / antizyme-mRuby2 (antizyme with a C-terminal mRuby2 tag) [human] (parent complex)
chain 1: MKGFIDDANYSVGLLDEGTNLGNVIDNYVYEHTLTGKNAFFVGDLGKIVKKHSQWQNVVAQIKPFYTVKCNSAPAVLEILAALGTGFACSSKNEMALVQELGVPPENIIYISPCKQVSQIKYAAKVGVNILTCDNEIELKKIARNHPNAKVLLHIATEDNIGGEEGNMKFGTTLKNCRHLLECAKELDVQIIGVKFHVSSACKESQVYVHALSDARCVFDMAGEIGFTMNMLDIGGGFTGTEFQLEEVNHVISPLLDIYFPEGSGVKIISEPGSYYVSSAFTLAVNIIAKKVVENDKFPSGVEKTGSDEPAFMYYMNDGVYGSFASKLSEDLNTIPEVHKKYKEDEPLFTSSLWGPSCDELDQIVESCLLPELNVGDWLIFDNMGADSFHEPSAFNDFQRPAIYYMMSFSDWYEMQDAGITSDSMMKNFFFVPSCIQLSQEDSFSAEA
chain 2: not shown

Variants of: B1
Assay: FRET titration; parent: 24 nM; read off a plot

| Variant | Kd [nM] |
| --- | --- |
| chain 1 N396A | ~47 |
| chain 1 M168A | ~21 |
| chain 1 S91A | ~26 |
| chain 1 F395A | ~58 |
| chain 1 K175A | ~30 |
| chain 1 L328A | ~26 |
| chain 1 E138A | ~20 |
| chain 1 C114A | ~28 |
| chain 1 L139A | ~9.3 |
| chain 1 K92A | ~25 |
| chain 1 D214A | ~27 |
| chain 1 Q116A | ~21 |
| chain 1 D423A | ~23 |
| chain 1 F398A | ~23 |
| chain 1 K115A | ~23 |
| chain 1 E366A | ~31 |
| chain 1 S393A | ~25 |

| Variant | Kd [nM] |
| --- | --- |
| chain 1 L361A | ~55 |
| chain 1 E136A | ~20 |
| chain 1 E391A | ~12 |
| chain 1 S118A | ~15 |
| chain 1 K63A | ~23 |
| chain 1 D359A | ~41 |
| chain 1 Y321A | ~27 |
| chain 1 S329A | ~24 |
| chain 1 F170A | ~27 |
| chain 1 K69A | ~21 |
| chain 1 D134A | ~18 |
| chain 1 K169A | ~21 |
| chain 1 K141A | ~19 |
| chain 1 R144A | ~10 |
| chain 1 N93A | ~35 |
| chain 1 Q119A | ~9.6 |
| chain 1 S367A | ~39 |

Variants of: B1
Assay: FRET titration; Clover-containing proteins 50 nM; titration of AZ-mRuby2; parent: 22.2 nM

| Variant | Kd [nM] |
| --- | --- |
| chain 1 S329Y | 28.6 |
